Measurements: the supplement of paper PMC10567573
± gives the standard deviation.

Assay: protein stability index of a GFP-peptide fusion (GPS, HEK-293T) (PSI 1-6); higher = more stable
[1] = treatment: DMSO, c terminus: a fixed tail appended
[2] = treatment: MLN4924 1 uM, 8 h, c terminus: a fixed tail appended
[3] = treatment: DMSO, c terminus: native
[4] = treatment: MLN4924 1 uM, 8 h, c terminus: native
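Note: 24-mer peptide tiles fused after GFP, lentivirally expressed, FACS-sorted into six equal bins by GFP/DsRed ratio, decoded by Illumina sequencing, PSI is the read-weighted mean bin number.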

Sequence | protein stability index [1] | protein stability index [2] | protein stability index [3] | protein stability index [4]
IVTVHYGCASFIYLRPQSNYSSSQ [OR10K2] | 2.92 ± 0.39 | 2.95 ± 0.56 | – | –
IYNSHLVVHQRVHSGEKPYKCSDC [ZNF232] | 2.9 ± 0.23 | 3.02 ± 0.28 | – | –
IYNSNIFTDPFFIVETLCIIWFSF [KCNA1] | 3.23 ± 0.2 | 3.17 ± 0.29 | – | –
KAAEGGLSSPEFSELCIWLGSQIK [FAM98B] | 2.08 ± 0.12 | 2.03 ± 0.4 | – | –
KADENNGFGSKNTAFCTHVFPETA [TBX5] | 4.01 ± 0.47 | 3.86 ± 0.2 | – | –
KCDQPFFWNFKQMWDSKKIGLRQH [WDFY2] | 2.29 ± 0.36 | 2.65 ± 0.42 | – | –
KDPYGKPVDLWACGVILYILLVGY [CAMK2A] | 3.16 ± 0.97 | 3.07 ± 0.32 | – | –
KEDKIMLDDRKNEEDGGADEHEHP [MIA2] | 5.52 ± 0.063 | 5.55 ± 0.19 | – | –
KENIEKDEDDVDQELANIDPTWIE [SRPK2] | 5.56 ± 0.28 | 5.53 ± 0.2 | – | –
KFSIPDLDRHQLPLDDALLSFAHA [DPCD] | 2.84 ± 0.21 | 2.94 ± 0.35 | – | –
KGERGEDSSEEKHLEEPGETQNAF [CHGB] | 5.61 ± 0.19 | 5.62 ± 0.13 | – | –
KIGNSAFARYPNGVVVHYFCSKEV [VPS39] | 2.41 ± 0.48 | 2.33 ± 0.32 | – | –
KILGYLNTNVLSRDLIPPHVNFSH [SLC6A17] | 2.2 ± 0.33 | 2.375 ± 0.022 | – | –
KIMIIICCVILGIVIASTVGGIFA [STX1A] | 2.04 ± 0.38 | 2.23 ± 0.41 | – | –
KKCCIPETRRRMEMAFNTRCKEEN [NLN] | 3.57 ± 0.25 | 3.75 ± 0.22 | – | –
KKHNVTAVVRLNKKIYEAKRFTDA [CDC14A] | 2.73 ± 0.2 | 2.49 ± 0.24 | – | –
KKHYRLQFYMFGWTHVTLLIVVTQ [CDS2] | 2.89 ± 0.55 | 2.58 ± 0.71 | – | –
KKREFRFHPIKETVVEEPVDITPY [INTS3] | 2.83 ± 0.51 | 3.59 ± 0.68 | – | –
KKRKRQEKIDKLEQDMERRKADFK [ZC3H15] | 4.7 ± 0.4 | 4.77 ± 0.1 | – | –
KKRRLPPVHIHPAFARQAAQEPSA [FOXJ1] | 3.87 ± 0.25 | 3.82 ± 0.36 | – | –
KLHDFFSYLMDHFIPSSHNDRDFL [PPEF2] | 2.46 ± 0.51 | 2.53 ± 0.64 | – | –
KLSEHLRYCDSILREMLSKKHAAY [BRD3] | 2.28 ± 0.21 | 2.14 ± 0.21 | – | –

Sequence | protein stability index [1] | protein stability index [2] | protein stability index [3] | protein stability index [4]
KMPVLKAEASHYNSDLNNLLFCCQ [RHOBTB3] | 2.27 ± 0.41 | 2.29 ± 0.15 | – | –
KNLFGPPLESAFDHEDFTGSSSLG [FCHO1] | 4.22 ± 0.13 | 4.37 ± 0.7 | – | –
KNTEVSSMECEKNLYWICNKPYK [CD69] | – | – | 2.97 ± 0.2 | 2.86 ± 0.61
KNYNYGMHYCAVPPRGPLGQGAMF [NEUROD6] | 2.18 ± 0.44 | 2.47 ± 0.34 | – | –
KPTRRDASPESPSKKGPIPIRRH [GNAS] | – | – | 4.71 ± 0.19 | 5.21 ± 0.49
KQDSLVILTIMATLKIRNSNFYTV [TMEM106C] | 3.25 ± 0.41 | 3 ± 0.67 | – | –
KQEQSIISEYEKSLQFDEKCLSIM [RPAIN] | 3.67 ± 0.12 | 3.69 ± 0.23 | – | –
KQLRQVTKEEGLALAREFSCPFFE [RIT1] | 3.27 ± 0.29 | 3.49 ± 0.33 | – | –
KQSFLDGGKGHHLPSENLGKEPLD [TOR1AIP2] | 5.13 ± 0.11 | 5.01 ± 0.21 | – | –
KRDDYLEWPEYFMAVAFLSAQRSK [DCTD] | 2.27 ± 0.19 | 2.12 ± 0.35 | – | –
KSLEIEEKINKIKWLPQQNAAHSL [PPP2R2C] | 3.66 ± 0.21 | 3.67 ± 0.13 | – | –
KSQRQPRTSPSCAFRSDDTKGHPR [CDC14A] | 4.49 ± 0.16 | 4.62 ± 0.2 | – | –
KTERINALELLGATFVDKKRDLLG [FEM1C] | 3.23 ± 0.1 | 3.4 ± 0.22 | – | –
KTLYVGNLSRDVTEALILQLFSQI [TIA1] | 2.6 ± 0.51 | 2.73 ± 0.42 | – | –
KVDGPRSPSYGRSRSRSRSRSRSR [SRSF1] | 5.27 ± 0.26 | 5.46 ± 0.14 | – | –
KVLLSGATFLVTFGNSEKPETMTC [ZFYVE21] | 2.43 ± 0.27 | 2.23 ± 0.72 | – | –
KVPNHYIAIPEWFLSENATVAAET [CPXM2] | 3.22 ± 0.43 | 3.32 ± 0.47 | – | –
KVSQWWERLTKQEKRPLFLAPDFD [HACD3] | 2.34 ± 0.31 | 2.55 ± 0.089 | – | –
KYEKLRGDVAIKLKFLEENKIKVM [ARFIP2] | 2.22 ± 0.37 | 2.48 ± 0.27 | – | –
KYSYTSTSDDNLLKNIELFDKLAL [KCTD13] | 2.63 ± 0.42 | 2.59 ± 0.26 | – | –
LAEARRLFPGRVSVDLMLGLPAQQ [RSAD1] | 2.76 ± 0.25 | 2.7 ± 0.31 | – | –
LAFFPFLHRLFREKSLDQLKSISA [PHTF1] | 2.46 ± 0.3 | 2.26 ± 0.35 | – | –

Sequence | protein stability index [1] | protein stability index [2] | protein stability index [3] | protein stability index [4]
LAIFKSGGIPALVKMLGSPVDSVL [CTNNB1] | 2.28 ± 0.36 | 2.14 ± 0.35 | – | –
LAKEIRVKAEPFIKWLKEAEEESS [EIF5] | 3.33 ± 0.2 | 3.9 ± 0.52 | – | –
LALDSGASLLHLAVEAGQEECAKW [RIPK4] | 3.73 ± 1.2 | 3.46 ± 0.4 | – | –
LAPGPAPTRCLPGHKEEEDGEGAG [ESRRA] | 5.45 ± 0.16 | 5.48 ± 0.081 | – | –
LAVFARCLAGCEGAHEQVDFKDFY [P3H4] | 1.94 ± 0.45 | 2.02 ± 0.31 | – | –
LDAHYHVKISDFGLAKCNGLSHSH [RIPK4] | 2.25 ± 0.31 | 2.48 ± 0.15 | – | –
LDNTKFRSHEGETAYIRVKVDGPR [SRSF1] | 3.73 ± 0.34 | 3.49 ± 0.32 | – | –
LDPMKNVTCENGLPAVVSCVPGQV [LOXL2] | – | 4.36 ± 0.06 | – | –
LEELTKLQNNCTSSITRQKKRLQE [TMEM120A] | 4.81 ± 0.3 | 4.76 ± 0.31 | – | –
LEIELQSQLSMKAGLENTVAETEC [KRT13] | 5.02 ± 0.43 | 5.03 ± 0.11 | – | –
LETSGNPNGRYGSGYLLASTPESE [SLC6A17] | 4.93 ± 0.14 | 4.91 ± 0.26 | – | –
LFGGFADFGSAAASGSFPSQVTAT [CLINT1] | 2.71 ± 0.37 | 3.02 ± 0.33 | – | –
LFHRLDEDWDSALFAELGYFTDTD [ATF6] | 2.91 ± 0.48 | 3.02 ± 0.26 | – | –
LFSSHPPLGGGVGGQDGLGAPKDQ [KLHL14] | 4.89 ± 0.55 | 4.81 ± 0.049 | – | –
LFVLFMFFGMAFNFIVNDSRKKPI [SOAT1] | 3.19 ± 0.45 | 2.99 ± 0.24 | – | –
LGEVAYHDYHGILVDEEEKVLIQK [ADD1] | 4.9 ± 0.15 | 4.74 ± 0.61 | – | –
LGLNAAFWFFALTSLRLVFLLAFG [RETREG3] | 3.06 ± 0.41 | 3.35 ± 1.4 | – | –
LGRSIVSSPQGKSGPEAARAGGWV [PKD2L1] | 3.45 ± 0.2 | 3.83 ± 0.36 | – | –
LHPLLSGRLGRWLRSTRFSGSLDR [PCDHGC5] | 2.46 ± 0.23 | 2.45 ± 0.54 | – | –
LHRTEGELQKIVQAGDKDLDGQLD [SLC25A25] | 5.58 ± 0.21 | 5.55 ± 0.31 | – | –
LHSACGLSKDHQEVETEGPESADT [TOR1AIP2] | 5.36 ± 0.26 | 5.53 ± 0.16 | – | –
